According to paper PMC7797054, “Structural basis for inhibition of the type I-F CRISPR–Cas surveillance complex by AcrIF4, AcrIF7 and AcrIF14” (Nucleic Acids Research, 2020):

B1: Cas7f subunit of the Csy complex (natural protein, Pseudomonas aeruginosa)
chain: MSKPILSTASVLAFERKLDPSDALMSAGAWAQRDASQEWPAVTVREKSVRGTISNRLKTKDRDPAKLDASIQSPNLQTVDVANLPSDADTLKVRFTLRVLGGAGTPSACNDAAYRDKLLQTVATYVNDQGFAELARRYAHNLANARFLWRNRVGAEAVEVRINHIRQGEVARAWRFDALAIGLRDFKADAELDALAELIASGLSGSGHVLLEVVAFARIGDGQEVFPSQELILDKGDKKGQKSKTLYSVRDAAAIHSQKIGNALRTIDTWYPDEDGLGPIAVEPYGSVTSQGKAYRQPKQKLDFYTLLDNWVLRDEAPAVEQQHYVIANLIRGGVFGEAEEK
notes: Cas7f (Csy3) of Pseudomonas aeruginosa PA14; Stood in the assay as a subunit (six copies) of the whole Csy complex; It may carry the His tag of the complex (surmise); also called Cas7.1f-Cas7.6f; Cas7.4f; source: E. coli BL21 (DE3), co-expressed and purified as part of the Csy complex (HisTrap HP, HiTrap Q, Superdex 200)

Key:
[1] = target: type I-F CRISPR-Cas surveillance complex (the Csy complex) from Pseudomonas aeruginosa PA14 (Pseudomonas aeruginosa) (UniProt Q02ML9); experiment: cryo-EM structure; Csy incubated with AcrIF protein at molar ratio 1:10 for 1 h on ice, SEC in 20 mM HEPES pH 7.5, 100 mM KCl, 5% glycerol, 1 mM TCEP; 0.5 mg/ml on UltrAuFoil grids, Titan Krios 300 kV
[2] = target: the molecule itself; experiment: as above

type I-F CRISPR-Cas surveillance complex (the Csy complex) from Pseudomonas aeruginosa PA14 (Pseudomonas aeruginosa), sequence (Q02ML9 whole entry, chain 1 of 3): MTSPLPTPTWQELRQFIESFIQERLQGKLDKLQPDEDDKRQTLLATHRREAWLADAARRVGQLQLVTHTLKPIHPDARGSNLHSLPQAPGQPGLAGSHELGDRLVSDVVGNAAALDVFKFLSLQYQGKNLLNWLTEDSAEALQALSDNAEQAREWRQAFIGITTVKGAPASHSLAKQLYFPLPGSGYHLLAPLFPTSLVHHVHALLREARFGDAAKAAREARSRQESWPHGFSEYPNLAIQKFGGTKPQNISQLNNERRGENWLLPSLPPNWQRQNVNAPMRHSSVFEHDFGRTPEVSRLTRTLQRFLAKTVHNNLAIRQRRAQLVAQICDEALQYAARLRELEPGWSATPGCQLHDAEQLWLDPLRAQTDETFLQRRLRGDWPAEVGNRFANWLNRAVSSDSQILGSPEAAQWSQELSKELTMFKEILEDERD
type I-F CRISPR-Cas surveillance complex (the Csy complex) from Pseudomonas aeruginosa PA14 (Pseudomonas aeruginosa), sequence (Q02MM0 whole entry, chain 2 of 3, further chain): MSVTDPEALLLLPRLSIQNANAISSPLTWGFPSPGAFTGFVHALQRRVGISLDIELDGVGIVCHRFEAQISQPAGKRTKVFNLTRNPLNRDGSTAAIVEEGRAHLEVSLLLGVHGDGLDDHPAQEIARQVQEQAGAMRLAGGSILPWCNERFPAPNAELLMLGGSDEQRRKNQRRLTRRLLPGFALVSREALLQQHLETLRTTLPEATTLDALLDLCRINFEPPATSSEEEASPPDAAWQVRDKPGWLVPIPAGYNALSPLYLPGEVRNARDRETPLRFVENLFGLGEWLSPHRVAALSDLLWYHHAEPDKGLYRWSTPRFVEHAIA
type I-F CRISPR-Cas surveillance complex (the Csy complex) from Pseudomonas aeruginosa PA14 (Pseudomonas aeruginosa), sequence (Q02MM2 whole entry, chain 4 of 3, further chain): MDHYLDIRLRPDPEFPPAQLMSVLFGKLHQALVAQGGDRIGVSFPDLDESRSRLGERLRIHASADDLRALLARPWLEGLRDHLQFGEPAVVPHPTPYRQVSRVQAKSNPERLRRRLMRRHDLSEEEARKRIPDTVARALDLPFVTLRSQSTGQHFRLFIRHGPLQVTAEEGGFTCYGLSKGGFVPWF

Molecule	stoichiometry N [1]	stoichiometry N [2]
AcrIF14 (natural protein)	2	
B1		6
